Experimental data published in publication PMC10249625 (Biochemistry, 2023).

Assays:
[1] = target: hBIMEL (141–166) BH3 peptide (human); experiment: native MS
[2] = target: hBIMEL (141–166) BH3 peptide (human); experiment: HDX-MS

B1: Bcl-2 chimera (1–34 Bcl-2, 35–50 Bcl-XL, 93–207 Bcl-2) with a C-terminal 6His tag (domain or fragment)
chain: MAHAGRTGYDNREIVMKYIHYKLSQRGYEWDAGDDVEENRTEAPEGTESEPVVHLTLRQAGDDFSRRYRRDFAEMSSQLHLTPFTARGRFATVVEELFRDGVNWGRIVAFFEFGGVMCVESVNREMSPLVDNIALWMTEYLNRHLHTWIQDNGGWDAFVELYGPSMR
Question: Does B1 bind [1]?
Answer: binds

B2: Mcl-1 (172–327), untagged after thrombin cleavage of GST (domain or fragment, human (from the printed UniProt entry))
chain: GSGSDELYRQSLEIISRYLREQATGAKDTKPMGRSGATSRKALETLRRVGDGVQRNHETAFQGMLRKLDIKNEDDVKSLSRVMIHVFSDGVTNWGRIVTLISFGAFVAKHLKTINQESCIEPLAESITDVLVRTKRDWLVKQRGWDGFVEFFHVEDLEGG
Question: Does B2 bind [2]?
Answer: binds
